Results reported in patent US20100068766A1, “COMPOSITION FOR CLEAVING AND/OR CONNECTING SINGLE STRAND DNA” (WASEDA UNIVERSITY, priority 2007, published 2010).

T1: Rad51B protein / Ev1 protein (Homo sapiens, UniProt O15315+Q9UI08)
T1 construct: in accordance with the protocols used in purification of the entire-length Ev1 protein; 6xHis (N, cleaved yes); made in house; host or cells: Ev1: E. coli BL21 (DE3) codon plus-RP
T1 sequence (Q9UI08 1-418 isoform Q9UI08-2): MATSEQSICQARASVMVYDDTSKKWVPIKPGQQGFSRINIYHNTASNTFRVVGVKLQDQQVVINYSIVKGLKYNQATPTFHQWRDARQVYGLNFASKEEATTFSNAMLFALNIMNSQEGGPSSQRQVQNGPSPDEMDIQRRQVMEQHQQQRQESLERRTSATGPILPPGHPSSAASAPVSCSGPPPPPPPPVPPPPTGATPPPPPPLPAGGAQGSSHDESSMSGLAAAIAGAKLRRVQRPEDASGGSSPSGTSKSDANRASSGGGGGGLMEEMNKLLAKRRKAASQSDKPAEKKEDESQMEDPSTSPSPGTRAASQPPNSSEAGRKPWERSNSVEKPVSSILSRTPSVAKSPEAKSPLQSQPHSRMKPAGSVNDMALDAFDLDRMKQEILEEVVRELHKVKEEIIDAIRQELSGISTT
T1 sequence (O15315 1-350 isoform O15315-1): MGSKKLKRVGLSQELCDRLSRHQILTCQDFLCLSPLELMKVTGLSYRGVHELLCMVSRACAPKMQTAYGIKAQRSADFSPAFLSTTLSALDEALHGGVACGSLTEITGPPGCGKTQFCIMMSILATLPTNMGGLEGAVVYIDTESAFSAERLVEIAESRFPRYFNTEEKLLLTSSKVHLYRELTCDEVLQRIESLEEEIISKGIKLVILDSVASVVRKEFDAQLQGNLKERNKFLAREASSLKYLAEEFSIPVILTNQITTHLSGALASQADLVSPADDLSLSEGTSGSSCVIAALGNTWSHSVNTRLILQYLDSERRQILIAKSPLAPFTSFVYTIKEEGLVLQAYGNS

B1: Ev1 (1-221) mutant: Ev1 fragment of amino acid residues 1-221, comprises EVH1 and a proline-rich domain (protein, UniProt Q9UI08 1-221, looked up, fragment)
chain: MSEQSICQARASVMVYDDTSKKWVPIKPGQQGFSRINIYHNTASNTFRVVGVKLQDQQVVINYSIVKGLKYNQATPTFHQWRDARQVYGLNFASKEEATTFSNAMLFALNIMNSQEGGPSSQRQVQNGPSPDEMDIQRRQVMEQHQQQRQESLERRTSATGPILPPGHPSSAASAPVSCSGPPPPPPPPVPPPPTGATPPPPPPLPAGGAQGSSHDESSMS
B2: Ev1 protein: human Ev1 protein (NCBI accession No. AAF21709), recombinant from E. coli, His tag removed (protein)
chain: T1 sequence (Q9UI08 1-418 isoform Q9UI08-2)

Legend:
[1] = system: Ev1 protein; experiment: Influence of Rad51B or Rad51 on catenation of single-stranded DNA by the Ev1 protein; type: biochemical; conditions: 4 μM Ev1 mutant plus 4 μM Rad51B protein
Description: Lanes 1 and 5 indicate the results of control experiments in which neither the Ev1 nor the Rad51B protein was used. Lanes 2 and 6 indicate the results of experiments that were carried out using a 4 μM Rad51B protein in the absence of the Ev1 protein. Lanes 3 and 7 indicate the results of experiments that were carried out using a 4 μM Ev1 protein in the absence of the Rad51B protein. Lanes 4 and 8 indicate the results of experiments that were carried out using a 4 μM Ev1 protein and a 4 μM Rad51B protein. Further, lanes 1-4 indicate the results of experiments that were carried out in the presence of ATP, and lanes 5-8 indicate the results of experiments that were carried out in the absence of ATP. […] Lanes 1 and 5 indicate the results of control experiments in which neither the Ev1 nor the Rad51 protein was used. Lanes 2 and 6 indicate the results of experiments that were carried out using a 4 μM Rad51 protein in the absence of the Ev1 protein. Lanes 3 and 7 indicate the results of experiments that were carried out using a 4 μM Ev1 protein in the absence of the Rad51 protein. Lanes 4 and 8 indicate the results of experiments that were carried out using a 4 μM Ev1 protein and a 4 μM Rad51 protein. Further, lanes 1-4 indicate the results of experiments that were carried out in the presence of ATP, and lanes 5-8 indicate the results of experiments that were carried out in the absence of ATP.
The Rad51B protein was mixed in a concentration of 0.5 to 8 μM with a 4 μM Ev1 protein, and the activity was then measured. Lane 1 indicates the results of a control experiment in which neither the Rad51B protein nor the Ev1 protein was added, and lane 8 indicates the results of a control experiment in which a 8 μM Rad51B protein was added and no Ev1 protein was added. Lanes 2-7 indicate the results of experiments in which the Rad51B protein was added in concentrations of 0 μM, 0.5 μM, 1.0 μM, 2.0 μM, 4.0 μM, and 8.0 μM, respectively, in the presence of 4 μM Ev1.
(§1) A φ×174 or M13 mp18 circular single-stranded DNA (20 μM) was incubated at 37° C. in 20 mM HEPES-NaOH (pH 7.5), 1 mM DTT, 1 mM MgCl2, and 0.1 mg/ml BSA. Thereafter, the sample was subjected to a deproteination treatment with 0.2% SDS and 1.3 mg/ml proteinase K. The obtained product was separated by 0.9% agarose gel electrophoresis, and a DNA band was then stained with SYBR Gold (Invitrogen).

[2] = system: φ×174 or M13 mp18 circular single-stranded DNA; experiment: Assay of catenation of single-stranded DNA; type: biochemical; conditions: 4 μM protein; 20 μM circular single-stranded DNA; 1 mM MgCl2; 37° C.
Description: as §1

[3] = biological target: T1, Rad51B protein / Ev1 protein; experiment: Pull-down assay using Ev1- or Rad51B-bound beads; type: binding; conditions: Affi-Gel 10 beads, 10 μg protein, room temperature, 150 minutes
Description: Thereafter, the obtained mixture was incubated at 4° C. overnight. The Affi-Gel 10-Ev1 beads were washed 3 times with 500 μl of washing buffer 1 (20 mM potassium phosphate (pH 8.5), 30% glycerol, 700 mM NaCl, 5 mM 2-mercaptoethanol, and 0.05% Triton X-100). The Affi-Gel 10-Rad51B beads were washed 3 times with washing buffer 2 (20 mM HEPES-NaOH (pH 7.3), 30% glycerol, 90 mM NaCl, 2 mM 2-mercaptoethanol, 0.1% Triton X-100, 2 mM ammonium sulfate, and 0.1 mM EDTA). Thereafter, a 50% suspension of such Affi-Gel 10-protein was prepared, and it was then preserved at 4° C.
In order to carry out a binding assay, an Affi-Gel 10-protein suspension (30 μl) was incubated with 10 μg of an Ev1 or Rad51B protein at room temperature for 150 minutes. Affi-Gel 10-Ev1 beads were washed 4 times with 100 μl of buffer 1 (20 mM potassium phosphate (pH 8.5), 30% glycerol, 700 mM NaCl, 5 mM 2-mercaptoethanol, and 0.3% Triton X-100). Affi-Gel 10-Rad51B beads were washed 4 times with 100 μl of buffer 2 (20 mM HEPES-NaOH (pH 7.3), 30% glycerol, 90 mM NaCl, 2 mM 2-mercaptoethanol, 2 mM ammonium sulfate, 0.1 mM EDTA, and 0.35% Triton X-100). An SDS-PAGE sample treatment buffer (2×) was directly mixed with the washed beads, and the obtained mixture was then subjected to a heat treatment at 100° C. for 2 minutes. […]

[4] = system: φ×174 supercoiled double-stranded DNA; experiment: Activity of Ev1 on supercoiled double-stranded DNA; type: biochemical; conditions: 4 μM Ev1; 10 μM φ×174 supercoiled and nicked double-stranded DNA
Description: Lanes 1 and 2 indicate the results obtained using a φ×174 circular single-stranded DNA. Lanes 3 and 4 indicate the results obtained using a M13 mp18 circular single-stranded DNA. In addition, lanes 1 and 3 indicate the results of control experiments in which no Ev1 protein was used, and lanes 2 and 4 indicate the results of experiments in which the Ev1 protein was used. […] A φ×174 circular single-stranded DNA (20 μM, lanes 1-3), or φ×174 supercoiled and nicked double-stranded DNA molecules (10 μM, lanes 4-6) were used to examine the influence of Ev1 (4 μM, lanes 2 and 5) and Escherichia coli-derived topoisomerase type I (5 units, lanes 3 and 6). Lanes 1 and 4 indicate the results of control experiments in which no Ev1 protein was used.
as §1

[5] = system: φ×174 supercoiled double-stranded DNA; experiment: DNA binding assay (double-stranded DNA); conditions: Ev1 0.2-3.2 μM; 10 μM φ×174 supercoiled double-stranded DNA; 37° C., 15 minutes
Description: (§2) Subsequently, the binding ability of the Ev1 protein to DNA was analyzed. The Ev1 protein was mixed with a φ×174 circular single-stranded DNA (40 μM) or a φ×174 supercoiled double-stranded DNA (10 μM) in 10 μl of a reaction solution (20 mM HEPES (pH 7.5), 1 mM DTT, 1 mM MgCl2, and 100 mg/ml BSA), and the mixture was then reacted at 37° C. for 15 minutes. The reaction product was analyzed by 0.8% agarose gel electrophoresis (3 V/cm, 3 hours) using a 1×TAE (40 mM Tris-acetate and 1 mM EDTA) buffer. A band of DNA was stained with ethidium bromide (FIG. 3).

[6] = system: φ×174 circular single-stranded DNA; experiment: DNA binding assay (single-stranded DNA); conditions: Ev1 0.2-3.2 μM; 40 μM φ×174 circular single-stranded DNA; 37° C., 15 minutes
Description: as §2

Molecule	ssDNA catenation activity with Rad51B protein added [1]	ssDNA catenation activity (multimer formation of circular single-stranded DNA) [2]	binding of Ev1 protein to Rad51B (pull-down) [3]	change of supercoiled double-stranded DNA [4]	binding to supercoiled double-stranded DNA [5]	binding to single-stranded DNA [6]
B1	no activity was detected	did not exhibit such ssDNA catenation activity				
B2		the circular single-stranded DNA formed a multimer	directly binds to Rad51B	the supercoiled double-stranded DNA was not particularly changed	efficiently binds	efficiently binds
